Key:
[1] = test system: PD-L1 on melanoma B16 cells; test: PD-L1 expression level by flow cytometry; assay type: cell-based, murine; settings: 5 μM harmine or 50 μg/ml interferon, 24 hours
Method: Melanoma B16 cells were treated by 5 μM harmine or 50 μg/ml interferon for 24 hours. PD-L1 level was assessed by flow cytometry using the FMI mode.
This can be considered as a favourable property because PD-L1 overexpression in tumour cells is constantly associated with poorer overall survival in cancer patients.

[2] = test system: L929 cells; settings: cited from earlier work

B1: interferon gamma: interferon gamma, known to increase the MHC I density at the cell membrane; positive control (protein, UniProt P01580 23-155, looked up)
Interferon gamma: HGTVIESLESLNNYFNSSGIDVEEKSLFLDIWRNWQKDGDMKILQSQIISFYLRLFEVLKDNQAISNNISVIESHLITTFFSNSKAKKDAFMSIAKFEVNNPQVQRQAFNELIRVVHQLLPESSLRKRKRSRC
PD-L1 expression at the membrane [1]: huge effect | fluorescent intensity (MHC class I and actin staining) ([2]; IFN-γ pre-treated cells compared to cells only): more fluorescent intensity | actin density [2]: significant increase of actin density

Source: patent US20220142994A1, “Beta-Carboline Compounds And Use Thereof For The Non-Cytotoxic And Immunological Treatment Of Cancer” (AC BIOSCIENCE SA, priority 2019, published 2022)
